In PMC12861225:

Key:
[1] = SYPRO Orange thermal shift, pooled purified protein; conditions: glycan lost; control: wild type
[2] = weak anion-exchange HPLC with activity-based detection; conditions: glycan lost; control: wild type
[3] = anti-Flag capillary immunoblot of Flag-purified medium, pooled n=6; conditions: glycan lost; control: wild type
[4] = pNPP activity of supernatant, normalised to total protein; homodimeric double mutants; conditions: glycan lost; control: wild type
[5] = pNPP activity; mutant:WT plasmid 1:1 (heterodimers not confirmed); conditions: glycan lost; control: wild type plasmid only

Protein	stability_or_folding, Tm [1]	other: HPLC isoform profile [2]	expression_or_secretion, fold_change [3]	enzymatic_activity, other: specific activity [4]	enzymatic_activity, percent_of_wt [5]
Tissue-nonspecific alkaline phosphatase (TNALP): N230Q/N303Q (protein) parent chain: MISPFLVLAIGTCLTNSLVPEKEKDPKYWRDQAQETLKYALELQKLNTNVAKNVIMFLGDGMGVSTVTAARILKGQLHHNPGEETRLEMDKFPFVALSKTYNTNAQVPDSAGTATAYLCGVKANEGTVGVSAATERSRCNTTQGNEVTSILRWAKDAGKSVGIVTTTRVNHATPSAAYAHSADRDWYSDNEMPPEALSQGCKDIAYQLMHNIRDIDVIMGGGRKYMYPKNKTDVEYESDEKARGTRLDGLDLVDTWKSFKPRYKHSHFIWNRTELLTLDPHNVDYLLGLFEPGDMQYELNRNNVTDPSLSEMVVVAIQILRKNPKGFFLLVEGGRIDHGHHEGKAKQALHEAVEMDRAIGQAGSLTSSEDTLTVVTADHSHVFTFGGYTPRGNSIFGLAPMLSDTDKKPFTAILYGNGPGYKVVGGERENVSMVDYAHNNYQAQSAVPLRHETHGGEDVAVFSKGPMAHLLHGVHEQNYVPHVMAYAACIGANLGHCAPASSAGSLAAGPLLLALALYPLSVLF	no change, 54.1 vs 54.5	no change	decreases, 0.4 vs 1.0	no change, 9.5 ± 6.5 vs 13.6 ± 6.6	–
Tissue-nonspecific alkaline phosphatase (TNALP): N230Q/N430D (protein) parent chain: MISPFLVLAIGTCLTNSLVPEKEKDPKYWRDQAQETLKYALELQKLNTNVAKNVIMFLGDGMGVSTVTAARILKGQLHHNPGEETRLEMDKFPFVALSKTYNTNAQVPDSAGTATAYLCGVKANEGTVGVSAATERSRCNTTQGNEVTSILRWAKDAGKSVGIVTTTRVNHATPSAAYAHSADRDWYSDNEMPPEALSQGCKDIAYQLMHNIRDIDVIMGGGRKYMYPKNKTDVEYESDEKARGTRLDGLDLVDTWKSFKPRYKHSHFIWNRTELLTLDPHNVDYLLGLFEPGDMQYELNRNNVTDPSLSEMVVVAIQILRKNPKGFFLLVEGGRIDHGHHEGKAKQALHEAVEMDRAIGQAGSLTSSEDTLTVVTADHSHVFTFGGYTPRGNSIFGLAPMLSDTDKKPFTAILYGNGPGYKVVGGERENVSMVDYAHNNYQAQSAVPLRHETHGGEDVAVFSKGPMAHLLHGVHEQNYVPHVMAYAACIGANLGHCAPASSAGSLAAGPLLLALALYPLSVLF	increases, 55.7 vs 54.5	changes	decreases, 0.6 vs 1.0	no change, 9 ± 6 vs 13.6 ± 6.6	–
Tissue-nonspecific alkaline phosphatase (TNALP): heterodimeric N230Q/N430D (protein) parent chain: MISPFLVLAIGTCLTNSLVPEKEKDPKYWRDQAQETLKYALELQKLNTNVAKNVIMFLGDGMGVSTVTAARILKGQLHHNPGEETRLEMDKFPFVALSKTYNTNAQVPDSAGTATAYLCGVKANEGTVGVSAATERSRCNTTQGNEVTSILRWAKDAGKSVGIVTTTRVNHATPSAAYAHSADRDWYSDNEMPPEALSQGCKDIAYQLMHNIRDIDVIMGGGRKYMYPKNKTDVEYESDEKARGTRLDGLDLVDTWKSFKPRYKHSHFIWNRTELLTLDPHNVDYLLGLFEPGDMQYELNRNNVTDPSLSEMVVVAIQILRKNPKGFFLLVEGGRIDHGHHEGKAKQALHEAVEMDRAIGQAGSLTSSEDTLTVVTADHSHVFTFGGYTPRGNSIFGLAPMLSDTDKKPFTAILYGNGPGYKVVGGERENVSMVDYAHNNYQAQSAVPLRHETHGGEDVAVFSKGPMAHLLHGVHEQNYVPHVMAYAACIGANLGHCAPASSAGSLAAGPLLLALALYPLSVLF	–	–	–	–	no change
Tissue-nonspecific alkaline phosphatase (TNALP): N140Q/N303Q (protein) parent chain: MISPFLVLAIGTCLTNSLVPEKEKDPKYWRDQAQETLKYALELQKLNTNVAKNVIMFLGDGMGVSTVTAARILKGQLHHNPGEETRLEMDKFPFVALSKTYNTNAQVPDSAGTATAYLCGVKANEGTVGVSAATERSRCNTTQGNEVTSILRWAKDAGKSVGIVTTTRVNHATPSAAYAHSADRDWYSDNEMPPEALSQGCKDIAYQLMHNIRDIDVIMGGGRKYMYPKNKTDVEYESDEKARGTRLDGLDLVDTWKSFKPRYKHSHFIWNRTELLTLDPHNVDYLLGLFEPGDMQYELNRNNVTDPSLSEMVVVAIQILRKNPKGFFLLVEGGRIDHGHHEGKAKQALHEAVEMDRAIGQAGSLTSSEDTLTVVTADHSHVFTFGGYTPRGNSIFGLAPMLSDTDKKPFTAILYGNGPGYKVVGGERENVSMVDYAHNNYQAQSAVPLRHETHGGEDVAVFSKGPMAHLLHGVHEQNYVPHVMAYAACIGANLGHCAPASSAGSLAAGPLLLALALYPLSVLF	–	no change	decreases, 0.4 vs 1.0	decreases, 3.5 ± 2.7 vs 13.6 ± 6.6	–
Tissue-nonspecific alkaline phosphatase (TNALP): N140Q/N230Q (protein) parent chain: MISPFLVLAIGTCLTNSLVPEKEKDPKYWRDQAQETLKYALELQKLNTNVAKNVIMFLGDGMGVSTVTAARILKGQLHHNPGEETRLEMDKFPFVALSKTYNTNAQVPDSAGTATAYLCGVKANEGTVGVSAATERSRCNTTQGNEVTSILRWAKDAGKSVGIVTTTRVNHATPSAAYAHSADRDWYSDNEMPPEALSQGCKDIAYQLMHNIRDIDVIMGGGRKYMYPKNKTDVEYESDEKARGTRLDGLDLVDTWKSFKPRYKHSHFIWNRTELLTLDPHNVDYLLGLFEPGDMQYELNRNNVTDPSLSEMVVVAIQILRKNPKGFFLLVEGGRIDHGHHEGKAKQALHEAVEMDRAIGQAGSLTSSEDTLTVVTADHSHVFTFGGYTPRGNSIFGLAPMLSDTDKKPFTAILYGNGPGYKVVGGERENVSMVDYAHNNYQAQSAVPLRHETHGGEDVAVFSKGPMAHLLHGVHEQNYVPHVMAYAACIGANLGHCAPASSAGSLAAGPLLLALALYPLSVLF	no change, 54.9 vs 54.5	–	decreases, 0.5 vs 1.0	decreases, 3.8 ± 3.9 vs 13.6 ± 6.6	–
Tissue-nonspecific alkaline phosphatase (TNALP): N271Q (protein) parent chain: MISPFLVLAIGTCLTNSLVPEKEKDPKYWRDQAQETLKYALELQKLNTNVAKNVIMFLGDGMGVSTVTAARILKGQLHHNPGEETRLEMDKFPFVALSKTYNTNAQVPDSAGTATAYLCGVKANEGTVGVSAATERSRCNTTQGNEVTSILRWAKDAGKSVGIVTTTRVNHATPSAAYAHSADRDWYSDNEMPPEALSQGCKDIAYQLMHNIRDIDVIMGGGRKYMYPKNKTDVEYESDEKARGTRLDGLDLVDTWKSFKPRYKHSHFIWNRTELLTLDPHNVDYLLGLFEPGDMQYELNRNNVTDPSLSEMVVVAIQILRKNPKGFFLLVEGGRIDHGHHEGKAKQALHEAVEMDRAIGQAGSLTSSEDTLTVVTADHSHVFTFGGYTPRGNSIFGLAPMLSDTDKKPFTAILYGNGPGYKVVGGERENVSMVDYAHNNYQAQSAVPLRHETHGGEDVAVFSKGPMAHLLHGVHEQNYVPHVMAYAACIGANLGHCAPASSAGSLAAGPLLLALALYPLSVLF	no change, 54.5 vs 54.5	no change	decreases, 0.4 vs 1.0	–	–
Tissue-nonspecific alkaline phosphatase (TNALP): N140Q/N430D (protein) parent chain: MISPFLVLAIGTCLTNSLVPEKEKDPKYWRDQAQETLKYALELQKLNTNVAKNVIMFLGDGMGVSTVTAARILKGQLHHNPGEETRLEMDKFPFVALSKTYNTNAQVPDSAGTATAYLCGVKANEGTVGVSAATERSRCNTTQGNEVTSILRWAKDAGKSVGIVTTTRVNHATPSAAYAHSADRDWYSDNEMPPEALSQGCKDIAYQLMHNIRDIDVIMGGGRKYMYPKNKTDVEYESDEKARGTRLDGLDLVDTWKSFKPRYKHSHFIWNRTELLTLDPHNVDYLLGLFEPGDMQYELNRNNVTDPSLSEMVVVAIQILRKNPKGFFLLVEGGRIDHGHHEGKAKQALHEAVEMDRAIGQAGSLTSSEDTLTVVTADHSHVFTFGGYTPRGNSIFGLAPMLSDTDKKPFTAILYGNGPGYKVVGGERENVSMVDYAHNNYQAQSAVPLRHETHGGEDVAVFSKGPMAHLLHGVHEQNYVPHVMAYAACIGANLGHCAPASSAGSLAAGPLLLALALYPLSVLF	increases, 56.5 vs 54.5	changes	decreases, 0.6 vs 1.0	decreases, 7 ± 4.3 vs 13.6 ± 6.6	–
